Results: paper PMC10175749
Positions count from the first letter of the chain named. In names and notes the source's numbering stands.

Substrate: C=C(C)CCO[P@@](=O)(O)OP(=O)(O)O
Test: purified protein
Details: IPP 0.5-50 µM
[1] = co-substrate GPP 60 µM, FPP formation

B1: RcG/FPPS1 (Rosa chinensis; F88Y) (protein)
chain: MADLKSKFLNVYSVLKSELLEDPAFEFTDASRQWVERMLDYNVPGGKLNRGLSVIDSYQLLQQGRELTEDEIFQASALGWCIEWLQAYFLVLDDMMDGSHTRRGQPCWFRLPKVGLIAANDGVLLRNHIPRILKKHFRQKPYYVDLVDLFNEVEFQTASGQLIDLITTIDGEKDLSKYSLSIHRRIVQYKTAYYSFYLSVACALLMSGEELDKHIDVKNLLVDMGIYFQVQDDYLDCFGDPETIGKIGTDIEDFKCSWLVVKALELSNEEQKKILHENYGNPDPAKVAKVKALYKELDLQGVFAEYERQSYEKLISSIEAHPSKAVQEVLKSFLGKIYKRKK
- Km [1]: 9.08 ± 0.74 µM

B2: RcG/FPPS1 (Rosa chinensis) (protein)
chain: B1 chain with Y88F
- Km (co-substrate DMAPP 60 µM, GPP formation): 0.44 ± 0.03 µM

B3: RcG/FPPS1 (Rosa chinensis; V123I) (protein)
chain: B1 chain with Y88F, V123I
- Km [1]: 14.74 ± 1.94 µM

B4: RcG/FPPS1 (Rosa chinensis; F88Y/V123I) (protein)
chain: B1 chain with V123I
- Km [1]: 12.78 ± 3.07 µM

B5: RcFPPS2 (Rosa chinensis) (protein)
chain: MSNLRAKFMEVYSVLKSELINDPAFEFTDVSRQWIERMLDYNVPGGKLNRGLSVVDSFKLLKEGRELTDEEVFQSCALGWCIEWLQAYFLVLDDIMDGSHTRRGQPCWFRQPKIGMIAANDGIILRNHIPRILKNHFRVMPYYVDLLDLFNEVEFQTAHGQMIDLITTHEGEKDLSKYSLEIHRRIVQYKTAYYSFYLPVACALVMAGKNVESHADVKNILIEMGTYFQVQDDYLDCFGDPEVIGKVGTDIQDFKCSWMVVKALELSNEEQKKLLHENYGKDDQECIAKVKELYNVLDLQGVFTEYESSSYDKLTKSIEAHPSKAVQAVLKSFLAKIYKRQK
- Km [1]: 13.1 ± 3.4 µM
